{
  "source": "patent US20070265201A1",
  "about": "“INHIBITORS OF IN[…] TRA[…] FROM HCMV PROTEIN IE2” (priority 2005, published 2007)",
  "molecules": {"B1": {"name": "GFP 291-364 (protein)", "chain": "SSHHGRGGFGGAASSSLLSCGHQSSGGASTGPRKKKSKRISELDNEKVRNIMKDKNTPFCTPNVQTRRGRVKID", "modifications": "left off: large carriers"}},
  "system": "C/EBPβ",
  "assay": "Specificity control: C/EBPβ expression by western blot of transfected HeLa-S3 lysates",
  "assay_type": "cell-based",
  "details": "HeLa-S3 cell lysates, FIG. 4C",
  "method": "FIGS. 4A-4D. […] FIG. 4D is another specificity control showing that a control GFP expression vector was not affected by either IE2 291-343 or IE2 291-364. HeLa-S3 cells were transfected with both a GFP expression vector and cotransfected with either E2 291-343 or IE 291-364 expression vectors and GFP expression analyzed 24 hours later by a fluorescence activated cell sorter.\nBecause the IE2 291-364 region was previously mapped as one of three TBP binding sites on IE2, it was possible that the inhibitory function was due to interaction with TBP. To exclude this possibility, the expression of two other genes that contain TATA boxes in their promoters were investigated. First, an observed the expression of C/EBPβ from the expression vector by western blot (FIG. 4C) was conducted. […] Second, His-tagged inhibitors were cotransfected with ev GFP and the geometric mean brightness of transfected cells measured by flow cytometry (FIG. 4D). […] It is believed that the basis for the interaction is localized to residues 315-328 of the IE2 molecule because a variant of IE2 291-364 missing the 315-328 region (delA) lacks binding to Spi-1 ETS domain in a GST fusion pull-down assay (FIG. 5).",
  "data": [
    {"molecule": "B1", "values": [
      {"measurement": "effect on expression of C/EBPβ protein (western blot)", "value": "no reduction"}
    ]}
  ]
}
